For one experiment, the target named is hCCR5 (human, UniProt P51681 1-352). As to the kind of experiment: cell-based or functional assay.
The target of experiment [1] is T1, CCR1 on peripheral blood monocytes (human, UniProt P32246 1-355).
T1 construct: whole, on cells; also called chemokine (C-C motif) receptor 1
T1 sequence (looked up): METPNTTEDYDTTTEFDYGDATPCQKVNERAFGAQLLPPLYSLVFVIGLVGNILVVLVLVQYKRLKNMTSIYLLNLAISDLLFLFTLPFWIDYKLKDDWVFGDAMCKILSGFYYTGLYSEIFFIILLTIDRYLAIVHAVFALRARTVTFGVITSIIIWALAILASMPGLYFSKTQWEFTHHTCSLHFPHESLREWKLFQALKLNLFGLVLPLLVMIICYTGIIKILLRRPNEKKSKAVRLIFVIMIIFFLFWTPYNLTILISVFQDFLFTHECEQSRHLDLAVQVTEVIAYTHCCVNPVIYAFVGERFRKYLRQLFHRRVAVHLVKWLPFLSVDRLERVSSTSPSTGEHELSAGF
As to the kind of experiment: flow cytometry, biotinylated chemokine (1 µM) detected with fluorophore-streptavidin, on blood monocytes of a sarcoidosis patient.
Protocol: Peripheral blood from patients and healthy controls was collected in heparin tubes. The red blood cells were lysed using Fix Buffer (Phosphate Buffer Saline (PBS) citrate with 4% paraformaldehyde) for four minutes at 37° C. and Lysing buffer (PBS with 10 mM Tris and 160 mM NH4Cl, pH 7.5) for 15 min at 37° C. The cells were washed in PBS with 2% Bovine Growth Serum, incubated with 10% human serum 15 min at room temperature (RT) and stained with cell specific antibodies together with biotinylated chemokine (1 μM) or the corresponding chemokine receptor antibody at 4° C. for 30 min (Table 1). The biotinylated chemokine was detected via the interaction between biotin and a fluorophore conjugated Streptavidin. The samples were analysed by flow cytometry on a FACS Canto flow cytometer with the FACSDiva software (BD Biosciences).

The record followed here is US20180038858A1 (published 2018).

Bridge positions count the residues as written; N and C are the ends. * marks the point of attachment. Biotin = O=C1N[C@H]2[C@H](CS[C@H]2CCCCC(=O)*)N1

Sequence of hCCR5 (P51681 whole entry): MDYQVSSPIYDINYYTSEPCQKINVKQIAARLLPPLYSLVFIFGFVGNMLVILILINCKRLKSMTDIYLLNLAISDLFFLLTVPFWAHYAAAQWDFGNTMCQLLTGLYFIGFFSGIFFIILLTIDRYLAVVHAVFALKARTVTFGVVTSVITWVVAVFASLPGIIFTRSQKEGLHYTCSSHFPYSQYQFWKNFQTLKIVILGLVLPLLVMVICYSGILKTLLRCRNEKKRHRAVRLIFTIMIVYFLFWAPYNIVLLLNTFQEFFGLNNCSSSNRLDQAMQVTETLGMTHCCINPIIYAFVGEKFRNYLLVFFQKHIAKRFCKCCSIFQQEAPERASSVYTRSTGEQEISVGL

B1: biotinRANTES (CCL5), RANTES derivatised at Lys(67) with Biotin (ligand)
chain: H-SPYSSDTTPCCFAYIARPLPRAHIKEYFYTSGKCSNPAVVFVTRKNRQVCANPEKKWVREYINSLEK(Biotin)S-OH
modifications: disulfide 10-34, 11-50
notes: Residues 1-68 of mature human RANTES; also called biotinylated RANTES; bRANTES
On to B1, for which the “EC50, agonist activity in an Aequorin assay” value with hCCR5 turned out to be 500 pM. In addition, the binding result in experiment [1] is “binds”.
